In patent US20020199213A1 (Kyowa Kirin, published 2002):
Each block holds one molecule with its values, some of them ahead of it.

Legend:
[1] = target: CD4:Fc (human) (UniProt P01730); assay: SPR, BIAcore2000, CD4:Fc immobilized by amine coupling, MAb flowed
[2] = target: T1, Human CD152 Mu-Ig fusion (Ancel # 501-820) (human, UniProt P16410 36-161); assay: ELISA of hybridoma supernatant on coated human CD152 mu-Ig fusion (assay taken from paragraph 247; the table does not explain OD)
T1 construct: Bought reagent; coated on ELISA plates at 0.2 ug/ml for hybridoma screening; also called CTLA-4; not shown: murine Ig part of the bought fusion, not described
T1 sequence (looked up): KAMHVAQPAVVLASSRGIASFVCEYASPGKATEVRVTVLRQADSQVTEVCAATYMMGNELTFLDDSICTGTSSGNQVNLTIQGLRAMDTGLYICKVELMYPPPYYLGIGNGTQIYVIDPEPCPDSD

Ka [1]: 3.1e+10 M⁻¹
koff [1]: 7.1e-06 s⁻¹
kon [1]: 220000 M⁻¹ s⁻¹
Molecule: murine anti-CD4 MAb, Leu3a (Pharmingen) (antibody)

OD [2]: 1.39 OD
B1: 1H5 (antibody, V domains shown)
VH: QLQLQESGPGLVKPSETLSLTCTVSGGSISNSNYYWGWIRQPPGKELEWIGSIYYTGNTYYNPSLKSRVTVSVDTSRNQFSLNLNSVIAADTAVYSCARHGFTISWSLDVWGQGTTVTVSS
VL: AIQLTQSPSSLSASVGDRVTITCRASQGISSALAWYQQKPGKAPKLLIYDASSLESGVPSRFSGSGSGTDFTLTISSLQPEDFATYYCQQFNSYLLTFGGGTKVEIK

OD [2]: 1.3 OD
B2: 9C4 (antibody, V domains shown)
VH: QVQLVESGGGVVEPGRSLRLSCAASGFTFSSYGMHWVRQAPGKGLEWVAVIWYKSSEKDYADSAKGRFTISRDNSKNTLYLQMNSLRAEDTAVYYCARAGLLGYFDYWGQGTLVTVSS
VL: EIVLTQSPGTLSLSPGERATLSCRASQSLNSYLAWYQQKPGQAPRPLIYGVSSRATGIPDRFSGSGSGTDFTLTISRLEPEDFAVYYCQQYGIYPFTFGPGTKVDIK
